From paper PMC3898472, “Molecular Basis for DNA Double-Strand Break Annealing and Primer Extension by an NHEJ DNA Polymerase”

Molecular target: Mt-PolDom K217A (UniProt P9WNV3 1-300, K217A)
Assay: EMSA
Conditions: protein: recombinant; label: 32P 5'-end label

B1: 1-nt gapped SP1C/T13C/DG-P (dsDNA)
DNA 1: AGAAGTGTATCTAGTACTCACTGTGATC
DNA 2: GATCACAGTGAGTAC
DNA 3: AGATACACTTCT
modifications: 5'-phosphate on DG
binding result: binds
